Assay results reported in patent US9884910B2, “Anti-PDGF-C antibodies” (ThromboGenics NV, priority 2012, dated 2018).

Experiments:
[1] = molecular target: T1, PDGFRα activation by human PDGF-C (Homo sapiens, UniProt Q9NRA1); test: PathHunter PDGFRα receptor tyrosine kinase assay in U2OS PDGFRα PLCG1 cells; assay type: cell-based
T1 construct: the growth factor domain of PDGF-C (amino acids 235-345 of human PDGF-C); purchased R&D Systems 1687-CC/CF; host or cells: ligand added to U2OS PDGFRα PLCG1 cells (DiscoveRx, assay 93-0823C3) that express the transfected receptor
T1 sequence (Q9NRA1 235-345): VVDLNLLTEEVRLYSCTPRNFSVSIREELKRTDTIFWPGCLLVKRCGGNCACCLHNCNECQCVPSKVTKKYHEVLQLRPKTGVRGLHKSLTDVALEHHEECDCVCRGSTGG
Description: To evaluate the inhibitory activity of anti-human PDGF-C antibodies on PDGFRα activation by human PDGF-C, the PathHunter® receptor tyrosine kinase assay for PDGFRα (93-0823C3) from DiscoveRx® was used. […] A small complementing fragment of β-gal, the Prolink™ tag (PK) has been fused recombinantly to the intracellular C-terminus of the receptor tyrosine kinase PDGFRα. The larger portion of β-gal, termed EA for enzyme acceptor, is co-expressed with an SH2 (Src Homology 2) phosphotyrosine binding domain. Ligand-induced activation of the receptor results in dimerization and intra-cellular cross-phosphorylation of the receptor. Subsequently, the SH2 domain specifically binds the phosphorylated receptor resulting in the complementation of the two β-gal fragments PK and EA, and formation of a functional β-gal enzyme. Following addition of a β-gal substrate, an easily detectable chemiluminescent signal is produced which is directly correlated to receptor activation. The LumiLITE™ microplate reader is fully compatible with all EFC-based assays of DiscoveRx® and is therefore used.
For the PathHunter® PDGFRα, assay, U2OS PDGFRα, PLCG1 (phospholipase Cγ as the source of the SH2 domain) cells from DiscoveRx® were used. Frozen cells were stored in liquid nitrogen. Upon thawing, cells were resuspended in pre-warmed thawing medium (i.e. culture medium without the selection antibiotics Geneticin and Hygromycin B). After 48 hours of culture in a 5% CO2 incubator at 37° C., thawing medium was replaced by culture medium (MEM Eagle 1× (30-2003 from Invitrogen), 10% fetal bovine serum (SH30071.03 from Perbio Science), 1× Penicillin-Streptomycin-Glutamine (10378-016 from Invitrogen), 250 μg/ml Hygromycin B (10687-010 from Invitrogen), 500 μg/ml Geneticin (10131-035 from Invitrogen)). Once confluence was reached, cells were passaged with a ⅓ dilution every 2-3 days using Accutase (L11-007 from PAA). Cells were maintained in a non-confluent state during routine culture.
In the PathHunter® PDGFRα, assay, the U2OS PDGFRα, PLCG1 cells from DiscoveRx® cultured up to 10 passages were used. Cells were seeded at 20.000 cells in 100 μl per well in 96-well white culture-treated microplates with clear bottom (3610 from Corning). The PathHunter® Cell Plating 16 Reagent (93-0563R16 from DiscoveRx®) was employed as seeding medium. Following 24 hours of culture in 5% CO2 at 37° C., 25 μl of a 5-fold concentrated agonist solution in Cell Plating 16 Reagent was used per well to stimulate the cells. Recombinant human PDGF-C from R&D Systems (1687-CC/CF; Va1235-Gly345) was applied as agonist. After 3 hours incubation at room temperature, 60 μl of PathHunter® detection reagent (93-0001 from DiscoveRx®; 1 part Galacton Star® Substrate, 5 parts Emerald II™ Solution, and 19 parts of PathHunter® Cell Assay Buffer) was added. Cells were placed at room temperature and in the dark for another hour before luminescence was measured with the LumiLITE™ microplate reader. With GraphPad Prism® software, a non-linear regression analysis was performed using the obtained luminescent values in order to generate a sigmoidal agonist dose-response curve with variable slope. The EC50 (i.e. half maximal effective concentration) and EC80 value (i.e. the effective concentration that leads to 80% of the maximal response) for human PDGF-C was calculated.
To evaluate the inhibitory activity of anti-human PDGF-C antibodies on PDGFRα, activation by human PDGF-C, equal volumes of […] concentrated solutions of anti-human PDGF-C antibodies and the EC80 of human PDGF-C, prepared in Cell Plating 16 Reagent, were mixed and the assay was performed as described above. As positive controls, an anti-human PDGF-C polyclonal goat IgG antibody (AF1560 from R&D Systems) and recombinant human PDGFRα, Fc chimera (6765-PR from R&D Systems) were employed. […]

glioblastoma tumor, U118 = test: Antitumor effect against U118 glioblastoma xenograft; assay type: in vivo; conditions: for TGI (%) Day 53: day 53 post-tumor implantation; for TGI (%) Day 60: day 60 post-tumor implantation; for TGI (%) Day 63: day 63 post-tumor implantation; for TGI (%) Day 67: day 67 post-tumor implantation
Procedure: For the evaluation of anti-tumor activity of the antibodies, animals were weighed and tumors measured 2 times weekly using a caliper. Tumor weights were calculated using the formula mass (mg)=[length (mm)×width (mm)^2]/2. Antitumor activity evaluation was done at the single dose of 20 mg/kg. A dosage producing a 20% body weight loss (bwl) or 10% or more drug deaths, was considered an excessively toxic dosage. Animal body weights included the tumor weights. The primary efficacy end point is the tumor growth inhibition (% TGI). Changes in tumor volume for each treated (T) and control (C) are calculated for each tumor by subtracting the tumor volume on the day of first treatment (staging day) from the tumor volume on the specified observation day. The median ΔT is calculated for the treated group and the median ΔC is calculated for the control group. Then the ratio ΔT/ΔC is calculated and expressed as a percentage of TGI: ΔT=Tt−T0 ΔC=Ct−C0 % TGI=[1−(median(Tt−T0)/median(Ct−C0)]*100
The antitumor effect of 29H1, 5A2 and 16B1 was evaluated against a measurable glioblastoma tumor, U118, which express both PDGF-C and its receptor, PDGFRa, S.C. implanted in female SCID Beige mice. Control group was treated with PBS alone. The antibodies were administered by an intraperitoneal (IP) injection, and treatment started on day 28 post-tumor implantation and was performed twice a week.

[2] = molecular target: T2, 15-mer, overlapping peptides covering the entire human PDGF-C molecule (Homo sapiens, UniProt Q9NRA1); test: Epitope mapping ELISA on 15-mer overlapping peptides; assay type: binding; conditions: peptide coated 10 μg/mL, antibody 1 μg/mL
T2 construct: host or cells: chemical synthesis
Procedure: The binding of anti-PDGF-C antibodies to 15-mer, overlapping peptides covering the entire human PDGF-C molecule was assessed by ELISA. Antibodies included in this analysis are the five antibodies potently inhibiting activation of PDGF-Rα by PDGF-C, i.e. monoclonal antibodies 2D3, 5A2, 5H7, 16B1 and 29H1. Further included are two antibodies capable of binding to PDGF-C, but not or very poorly inhibiting activation of PDGF-Rα by PDGF-C, i.e. monoclonal antibodies 12E5 (IgG1) and 19F12 (IgG2b) (see Example 4). […] For all antibodies, it was confirmed that they bind to human PDGF-C and binding to full-length human PDGF-C was for all antibodies tested more efficient than binding to any of the peptides identified as described hereafter.
The indicated peptides where synthesized in an N-terminally biotinylated form and coated onto a neutravidin plate (Thermo Scientific, Cat. 15127) at a concentration of 10 μg/mL. The antibodies listed in the table were incubated in each well at a concentration of 1 μg/mL and, following washing, were then detected in a standard ELISA format using an appropriate, HRP-labeled secondary antibody (goat anti-mouse IgG-HRP for all antibodies except sc-80290, and goat anti-rat IgG-HRP for sc-80290). Each antibody was tested at least twice, and up to 4 times. A “+” in the table indicate that a signal to background >3 was found and confirmed at least once. The background signal was measured in the absence of peptide using both the primary and the secondary antibodies. Antibodies sc-80290 and MAB1560 were tested only against peptides 42-63 since this represents the fraction of the protein that was used as an immunogen.

[3] = 20 mg/kg IP twice a week from day 28
[4] = peptide binds secondary antibody

Molecule	TGI (%) Day 53 (glioblastoma tumor, U118; [3])	TGI (%) Day 60 (glioblastoma tumor, U118; [3])	TGI (%) Day 63 (glioblastoma tumor, U118; [3])	TGI (%) Day 67 (glioblastoma tumor, U118; [3])	binding to peptide No 58 (SEQ ID NO: 96) VLQLRPKTGVRGLHK [2]	other results
Humanized mAb 5H7: humanized 5H7; VH SEQ ID NO:102, VL SEQ ID NO:103 (antibody, V domains shown, humanized variable heavy chain murine monoclonal antibody 5H7; humanized variable light chain murine monoclonal antibody 5H7) VH: EVQLLESGGGLVQPGGSLRLSCAASGFTFSSYGMSWVRQTPGKGLEWVATIGYGGSFTYYPDSMKGRFTISRDNAKNTLYLQMNSLRAEDTAVYYCARQAPLWDYFDYWGQGTLLTVSS VL: DVVMTQSPLSLPVTLGQPASISCRSSQTIVHSDGTTYLEWYLQKPGQSPRLLIYKVSNRFSGVPDRFSGSGSGTDFTLKISRVEAEDVGVYYCFQGSHVPPTFGQGTKLEIK	–	–	–	–	–	inhibition of the PDGFRα activation by human PDGF-C (in words) [1]: apparently not inhibiting activation of PDGFR-α; IC50 value (nM) ([1]; humanized antibodies, * average of 3 measurements): nad
5A2: murine monoclonal anti-PDGF-C antibody, IgG2b κ; VL SEQ ID NO:15, VH SEQ ID NO:19 (antibody, listed as Mus musculus, V domains shown) VH: EVQLVESGGDLVKPGGSLKLSCAASGFTFSNYGMSWVRQTPDKRLEWVATIGSGGHYTYYPDSVKGRFTISRDSAKSTLYLQMSSLKSEDTAIYYCARQAPLWDCSDYWGQGTTLTVSS VL: DVLMTQTPLSLPVSLGDQASISCRSNQSIVHSNGDTYLEWYLQKPGQSPKLLIYKVSNRFSGVPDRFSGSGSGTDFTLKISRVEAEDLGVYYCFQGSHVPPTFGGGTKLEIK	55.7%	38.5%	43.4%	42.0%	+ (A “+” in the table indicate that a signal to background >3 was found and confirmed at least once)	tolerability / body weight loss (glioblastoma tumor, U118; 20 mg/kg IP twice a week): well-tolerated with no tumor body weight loss; TGI (%) Day 56 (glioblastoma tumor, U118; 20 mg/kg IP twice a week from day 28, day 56 post-tumor implantation): 58.5%; binding to peptide No 9 (SEQ ID NO: 47) FPHTYPRNTVLVWRL [2, 4]: + (A “+” in the table indicate that a signal to background >3 was found and confirmed at least once); binding to peptide No 27 (SEQ ID NO: 65) EPGFCIHYNIVMPQF [2, 4]: + (A “+” in the table indicate that a signal to background >3 was found and confirmed at least once)
2D3: murine monoclonal anti-PDGF-C antibody, IgG1 κ; VL SEQ ID NO:14, VH SEQ ID NO:18 (antibody, listed as Mus musculus, V domains shown) VH: EVQLVESGGDLVKPGGSLKLSCAASGFTFSNYGMSWVRQTPDKRLEWVATIGSGGSYTYYPDSVKGRFTISRDSAKNTLYLQMSSLKSEDTAMYYCARQAPLWDYSDYWGQGTTLTVSS VL: DVLMTQTPLSLPVSLGDQASISCRSNQTIVHSNGDTYLEWYLQKPGQSPNLLIYKVSNRFSGVPDRFSGSGSGTDFTLKISRVEAEDLGVYYCFQGSHVPPTFGGGTKLEIK	–	–	–	–	+ (A “+” in the table indicate that a signal to background >3 was found and confirmed at least once)	–
16B1: murine monoclonal anti-PDGF-C antibody, IgG1 κ; VL SEQ ID NO:15, VH SEQ ID NO:18 (antibody, listed as Mus musculus, V domains shown) VH: EVQLVESGGDLVKPGGSLKLSCAASGFTFSNYGMSWVRQTPDKRLEWVATIGSGGSYTYYPDSVKGRFTISRDSAKNTLYLQMSSLKSEDTAMYYCARQAPLWDYSDYWGQGTTLTVSS VL: DVLMTQTPLSLPVSLGDQASISCRSNQSIVHSNGDTYLEWYLQKPGQSPKLLIYKVSNRFSGVPDRFSGSGSGTDFTLKISRVEAEDLGVYYCFQGSHVPPTFGGGTKLEIK	8.25%	27.6%	11.5%	11.9%	–	tumor growth block (in words) (glioblastoma tumor, U118; ip, at the different time points evaluated): failed to block tumor growth
5H7: murine monoclonal anti-PDGF-C antibody, IgG1 κ; VL SEQ ID NO:16, VH SEQ ID NO:20 (antibody, listed as Mus musculus, V domains shown) VH: EVQLVESGGDLVKPGGSLKLSCAASGFTFSSYGMSWVRQTPDKRLEWVATIGYGGSFTYYPDSMKGRFTISRDNAKNTLFLQMSSLKSEDTAIYYCVRQAPLWDYFDYWGQGTTLTVSS VL: DVLMTQTPLSLPVSLGDQASISCRSSQTIVHSDGTTYLEWYLQKAGQSPKLLIYKVSNRFSGVPDRFSGSGSGTDFTLKISRVEAEDLGVYYCFQGSHVPPTFGGGTKLEIK	–	–	–	–	+ (A “+” in the table indicate that a signal to background >3 was found and confirmed at least once)	–
